# From CN114539393A (BEIJING NEUABO XINESCAPE BIOTECHNOLOGY CO LTD, dated 2022)
# B1: N2-10单域抗体 (VHH)
# VHH: QVQLVESGGGLVQTGGSLGVSCAASGRTFSIYAMGWFRQAPGKEREFVAAISKSGDGKYYADSVKGRFTISRDNAKNTVALQMNSLKFEDTAVYYCVASRTVVSGASPDEYDLWGQGTQVTVSS
# notes: also called 单域抗体N2-10; N2-10-PSJF; not shown: c-myc and His6 tags from the pSJF2 vector
# B2: N2-8单域抗体 (VHH)
# VHH: QVQLVESGGGSVQAGGSLRLSCAASGRTFSIYAMGWFRQAPGKEREFVAAISKSGEGTYYADSVKGRFTISRDNAKNTVALQMNSLKSEDTAVYYCAASRVVVSGLSPSDYAYWGQGTQVTVSS
# notes: also called 单域抗体N2-8; N2-8-pSJF2; not shown: c-myc and His6 tags from the pSJF2 vector
# Biological target: T1, SARS-CoV2的N蛋白 (SARS-CoV2, UniProt P0DTC9 1-419)
# T1 construct: also called 新冠状病毒N蛋白; 2019-新型冠病毒N蛋白
# Test: ELISA, N protein coated at 2 ug/ml, VHH at 10.0 and 1.0 ug/ml, anti-Myc-HRP detection, OD450
row,Binder,binding result
1,B1,binds
2,B2,binds
